Measurements: US20200277349A1 (FRAUNHOFER GESELLSCHAFT ZUR F RDERUNG DER ANGEWANDTEN …, published 2020)

Legend:
[1] = target: T1, human IL-1RAPL1 extracellular domain-Fc chimera (human, UniProt Q9NZN1 19-357); assay: plate binding assay on immobilized IL-1RAPL1 extracellular domain-Fc chimera (FIG. 7B)
T1 construct: extracellular domain; Coated on 96 well plates at 0.5 ug; also called IL-1RAPL1-Fc; immobilized IL-1RAPL1; not shown: Fc part of the chimera
T1 sequence (looked up): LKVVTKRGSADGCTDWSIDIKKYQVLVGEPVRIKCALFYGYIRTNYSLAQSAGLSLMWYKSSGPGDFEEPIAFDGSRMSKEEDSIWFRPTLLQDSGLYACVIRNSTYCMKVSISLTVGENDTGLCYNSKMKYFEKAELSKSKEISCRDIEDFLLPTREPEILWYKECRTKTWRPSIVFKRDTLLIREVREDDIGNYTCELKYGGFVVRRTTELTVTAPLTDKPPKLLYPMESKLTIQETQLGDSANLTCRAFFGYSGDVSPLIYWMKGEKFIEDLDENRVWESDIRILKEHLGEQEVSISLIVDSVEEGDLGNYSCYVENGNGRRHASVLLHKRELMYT
Description: (§1) After 24 h IL-6 concentration in the supernatants was measured using cytometric bead array, normalized results are shown. Data are means±SEM, n=7. (B) Binding kinetics of full length and cleaved IL-38 to immobilized IL-1RAPL1. […] IL-38 binding to the extracellular domain of the receptors was detected using biotinylated monoclonal IL-38 antibody. Data are means±SEM, n=5.*p<0.05, ANOVA with Bonferroni's correction.
(§2) The inventors performed a receptor binding assay as explained above. Both IL-38 isoforms bound to IL-1RAPL1 in this assay (FIG. 7B). However, binding kinetics seemed to differ slightly. […] IL-1RAPL1 knock-down in macrophages abrogated both, IL-6 induction by full-length 11-38 and IL-6 suppression by truncated IL-38 (FIG. 7C).

[2] = target: T1, human IL-1RAPL1 extracellular domain-Fc …; assay: plate binding assay: IL-1RAPL1-Fc coated, IL-38 titrated, detected with biotinylated monoclonal IL-38 antibody
Description: as §1, §2

| Binder | binding result [1] | binding result [2] |
| --- | --- | --- |
| recombinant human truncated (cleaved) IL-38 (IL-38aa20-152) (ligand, also called truncated IL-38) LYTRDGQLLVGDPVADNCCAEKICILPNRGLARTKVPIFLGIQGGSRCLACVETEEGPSLQLEDVNIEELYKGGEEATRFTFFQSSSGSAFRLEAAAWPGWFLCGPAEPQQPVQLTKESEPSARTKFYFEQSW | binds |  |
| recombinant human full length IL-38 (IL-38aa1-152) (ligand) MCSLPMARYYIIKYADQKALYTRDGQLLVGDPVADNCCAEKICILPNRGLARTKVPIFLGIQGGSRCLACVETEEGPSLQLEDVNIEELYKGGEEATRFTFFQSSSGSAFRLEAAAWPGWFLCGPAEPQQPVQLTKESEPSARTKFYFEQSW |  | binds |
